Test [1] has as its target T1, Placenta Growth Factor (PlGF), human (human, UniProt P49763 21-149).
T1 chain: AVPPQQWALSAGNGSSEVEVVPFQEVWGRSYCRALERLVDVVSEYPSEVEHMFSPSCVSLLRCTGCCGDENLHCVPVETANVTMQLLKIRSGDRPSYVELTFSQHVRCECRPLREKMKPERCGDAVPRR
Briefly: ELISA. In general terms: An ELISA detects its analyte on a solid surface through an enzyme-linked reagent.

The target in test [2] is Hepatocyte Growth Factor (HGF), human (human, UniProt P14210 32-728). Briefly: ELISA.
Hepatocyte Growth Factor (HGF), human, sequence (P14210 32-728): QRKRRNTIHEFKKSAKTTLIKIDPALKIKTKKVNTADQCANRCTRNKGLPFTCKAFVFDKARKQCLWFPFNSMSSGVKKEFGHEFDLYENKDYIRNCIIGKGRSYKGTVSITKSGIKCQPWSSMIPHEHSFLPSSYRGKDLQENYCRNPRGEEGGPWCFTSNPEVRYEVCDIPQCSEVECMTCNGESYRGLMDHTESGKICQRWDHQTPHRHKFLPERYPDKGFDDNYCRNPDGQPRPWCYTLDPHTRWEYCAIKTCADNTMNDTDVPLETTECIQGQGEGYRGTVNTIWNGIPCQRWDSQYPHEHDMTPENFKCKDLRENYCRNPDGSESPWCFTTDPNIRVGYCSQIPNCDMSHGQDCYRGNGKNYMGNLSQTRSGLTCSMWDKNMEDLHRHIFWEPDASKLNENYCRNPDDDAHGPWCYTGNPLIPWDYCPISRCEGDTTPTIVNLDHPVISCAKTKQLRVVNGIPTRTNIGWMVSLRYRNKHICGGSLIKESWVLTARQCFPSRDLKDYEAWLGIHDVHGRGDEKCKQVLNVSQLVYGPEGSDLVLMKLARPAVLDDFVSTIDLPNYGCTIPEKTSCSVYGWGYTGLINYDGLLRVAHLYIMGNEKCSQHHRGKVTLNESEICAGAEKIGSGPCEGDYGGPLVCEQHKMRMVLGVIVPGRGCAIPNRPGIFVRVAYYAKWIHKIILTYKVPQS

B1: HC 4/SLC 8 (antibody)
chain 1: GQGTLVTVSSASTKQPVLHQPPAMSSALGTTIRLTCTLRNDHDIGVYSVYWYQQRPGHPPRFLLRYFSQSDKSQGPQVPPRFSGSKDVARNRGYLSISELQPEDEAMYYCAMGARSRCWPRGFQSKHNSVTHVFGSGTQLTVLSQPKATPSVTLFPPSSEELQANKATLVCLMNDFYPGILTVTWKADGTPITQGVEMTTPSKQSNNKYAASSYLSLTPEQWRSRRSYSCQVMHEGSTVEKTVAPAECS
chain 2: MSWAPVLLMLFVYCTGCGPQPVLHQPPAMSSALGTTIRLTCTLRNDHDIGVYSVYWYQQRPGHPPRFLLRYFSQSDKSQGPQVPPRFSGSKDVARNRGYLSISVTHVFGSGTQLTVLSQPKATPSQVQLVQ
As to B1, the EC50 (in general, the concentration that produces a half-maximal response) in test [1] amounted to 0.18 nM; in test [2], 0.061 nM.

B2: HC 10/SLC 5 (antibody)
chain 1: GQGTLVTVSSASTKGPSVFPQPVLHQPPAMSSALGTTIRLTCTLRNDHDIGVYSVYWYQQRPGHPPRFLLRYFSQSDKSQGPQVPPRFSGSKDVARNRGYLSISELQPEDEAMYYCAMGARSRCWPRGFQSKHNSVTHVFGSGTQLTVLSQPKATPSVTLFPPSSEELQANKATLVCLMNDFYPGILTVTWKADGTPITQGVEMTTPSKQSNNKYAASSYLSLTPEQWRSRRSYSCQVMHEGSTVEKTVAPAECS
chain 2: MSWAPVLLMLFVYCTGCGPQPVLHQPPAMSSALGTTIRLTCTLRNDHDIGVYSVYWYQQRPGHPPRFLLRYFSQSDKSQGPQVPPRFSGSKDVARNRGYLSISVTHVFGSGTQLTVLSQPKAQVQLVQ
Consider B2, for which the EC50 in test [1] stood at 0.181 nM; in test [2], 0.061 nM.

B3: HC 9/SLC 5 (antibody)
chain 1: GQGTLVTVSSASTKGPSVFQPVLHQPPAMSSALGTTIRLTCTLRNDHDIGVYSVYWYQQRPGHPPRFLLRYFSQSDKSQGPQVPPRFSGSKDVARNRGYLSISELQPEDEAMYYCAMGARSRCWPRGFQSKHNSVTHVFGSGTQLTVLSQPKATPSVTLFPPSSEELQANKATLVCLMNDFYPGILTVTWKADGTPITQGVEMTTPSKQSNNKYAASSYLSLTPEQWRSRRSYSCQVMHEGSTVEKTVAPAECS
chain 2: MSWAPVLLMLFVYCTGCGPQPVLHQPPAMSSALGTTIRLTCTLRNDHDIGVYSVYWYQQRPGHPPRFLLRYFSQSDKSQGPQVPPRFSGSKDVARNRGYLSISVTHVFGSGTQLTVLSQPKAQVQLVQ
In the case of B3, the EC50 in test [1] was 0.172 nM; in test [2], 0.065 nM.

B4: HC 6/SLC 7 (antibody)
chain 1: GQGTLVTVSSASTKGPQPVLHQPPAMSSALGTTIRLTCTLRNDHDIGVYSVYWYQQRPGHPPRFLLRYFSQSDKSQGPQVPPRFSGSKDVARNRGYLSISELQPEDEAMYYCAMGARSRCWPRGFQSKHNSVTHVFGSGTQLTVLSQPKATPSVTLFPPSSEELQANKATLVCLMNDFYPGILTVTWKADGTPITQGVEMTTPSKQSNNKYAASSYLSLTPEQWRSRRSYSCQVMHEGSTVEKTVAPAECS
chain 2: MSWAPVLLMLFVYCTGCGPQPVLHQPPAMSSALGTTIRLTCTLRNDHDIGVYSVYWYQQRPGHPPRFLLRYFSQSDKSQGPQVPPRFSGSKDVARNRGYLSISVTHVFGSGTQLTVLSQPKATPQVQLVQ
Turning to B4, the EC50 in test [1] came out at 0.083 nM; in test [2] it was 0.056 nM.

B5: HC 8/SLC 15 (antibody)
chain 1: GQGTLVTVSSASTKGPSVQPVLHQPPAMSSALGTTIRLTCTLRNDHDIGVYSVYWYQQRPGHPPRFLLRYFSQSDKSQGPQVPPRFSGSKDVARNRGYLSISELQPEDEAMYYCAMGARSRCWPRGFQSKHNSVTHVFGSGTQLTVLSQPKATPSVTLFPPSSEELQANKATLVCLMNDFYPGILTVTWKADGTPITQGVEMTTPSKQSNNKYAASSYLSLTPEQWRSRRSYSCQVMHEGSTVEKTVAPAECS
chain 2: MSWAPVLLMLFVYCTGCGPQPVLHQPPAMSSALGTTIRLTCTLRNDHDIGVYSVYWYQQRPGHPPRFLLRYFSQSDKSQGPQVPPRFSGSKDVARNRGYLSISVTHVFGSGTQLTVLSQPKATPSVTGGGGSQVQLVQ
Consider B5, for which the EC50 in test [1] amounted to 0.05 nM; in test [2], 0.048 nM.

B6: HC 7/SLC 2 (antibody)
chain 1: GQGTLVTVSSASTKGPSQPVLHQPPAMSSALGTTIRLTCTLRNDHDIGVYSVYWYQQRPGHPPRFLLRYFSQSDKSQGPQVPPRFSGSKDVARNRGYLSISELQPEDEAMYYCAMGARSRCWPRGFQSKHNSVTHVFGSGTQLTVLSQPKATPSVTLFPPSSEELQANKATLVCLMNDFYPGILTVTWKADGTPITQGVEMTTPSKQSNNKYAASSYLSLTPEQWRSRRSYSCQVMHEGSTVEKTVAPAECS
chain 2: MSWAPVLLMLFVYCTGCGPQPVLHQPPAMSSALGTTIRLTCTLRNDHDIGVYSVYWYQQRPGHPPRFLLRYFSQSDKSQGPQVPPRFSGSKDVARNRGYLSISVTHVFGSGTQLTVLSQQVQLVQ
On to B6, for which the EC50 in test [1] was 0.2 nM; in test [2], 0.057 nM.

B7: HC 9/SLC 3 (antibody)
chain 1: GQGTLVTVSSASTKGPSVFQPVLHQPPAMSSALGTTIRLTCTLRNDHDIGVYSVYWYQQRPGHPPRFLLRYFSQSDKSQGPQVPPRFSGSKDVARNRGYLSISELQPEDEAMYYCAMGARSRCWPRGFQSKHNSVTHVFGSGTQLTVLSQPKATPSVTLFPPSSEELQANKATLVCLMNDFYPGILTVTWKADGTPITQGVEMTTPSKQSNNKYAASSYLSLTPEQWRSRRSYSCQVMHEGSTVEKTVAPAECS
chain 2: MSWAPVLLMLFVYCTGCGPQPVLHQPPAMSSALGTTIRLTCTLRNDHDIGVYSVYWYQQRPGHPPRFLLRYFSQSDKSQGPQVPPRFSGSKDVARNRGYLSISVTHVFGSGTQLTVLSQPQVQLVQ
Consider B7, for which the concentration giving a half-maximal response (EC50) in test [1] was 0.136 nM; in test [2], 0.078 nM.

B8: HC 9/SLC 4 (antibody)
chain 1: GQGTLVTVSSASTKGPSVFQPVLHQPPAMSSALGTTIRLTCTLRNDHDIGVYSVYWYQQRPGHPPRFLLRYFSQSDKSQGPQVPPRFSGSKDVARNRGYLSISELQPEDEAMYYCAMGARSRCWPRGFQSKHNSVTHVFGSGTQLTVLSQPKATPSVTLFPPSSEELQANKATLVCLMNDFYPGILTVTWKADGTPITQGVEMTTPSKQSNNKYAASSYLSLTPEQWRSRRSYSCQVMHEGSTVEKTVAPAECS
chain 2: MSWAPVLLMLFVYCTGCGPQPVLHQPPAMSSALGTTIRLTCTLRNDHDIGVYSVYWYQQRPGHPPRFLLRYFSQSDKSQGPQVPPRFSGSKDVARNRGYLSISVTHVFGSGTQLTVLSQPKQVQLVQ
Take B8: the EC50 in test [1] stood at 0.164 nM; in test [2], 0.063 nM.

B9: HC 4/SLC 3 (antibody)
chain 1: GQGTLVTVSSASTKQPVLHQPPAMSSALGTTIRLTCTLRNDHDIGVYSVYWYQQRPGHPPRFLLRYFSQSDKSQGPQVPPRFSGSKDVARNRGYLSISELQPEDEAMYYCAMGARSRCWPRGFQSKHNSVTHVFGSGTQLTVLSQPKATPSVTLFPPSSEELQANKATLVCLMNDFYPGILTVTWKADGTPITQGVEMTTPSKQSNNKYAASSYLSLTPEQWRSRRSYSCQVMHEGSTVEKTVAPAECS
chain 2: MSWAPVLLMLFVYCTGCGPQPVLHQPPAMSSALGTTIRLTCTLRNDHDIGVYSVYWYQQRPGHPPRFLLRYFSQSDKSQGPQVPPRFSGSKDVARNRGYLSISVTHVFGSGTQLTVLSQPQVQLVQ
Consider B9, for which the EC50 is 0.147 nM in test [1] and 0.06 nM in test [2].

The values are drawn from US20150045540A1 (published 2015).
